{"source": "the nanobody polyreactivity screen of Harvey et al. (2022)", "data": [{"test": "yeast display, Sf9 membrane polyspecificity reagent, FACS + sequencing; frameworks hold sequencing errors", "procedure,_shortened": "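Nanobodies came from a synthetic yeast display library in Saccharomyces cerevisiae BJ5465, induced with galactose for 36–48 hours and stained for 1 hour at 4 °C with 10% biotinylated, detergent-solubilized Sf9 membrane reagent. Cells were enriched on streptavidin microbeads and then FACS-sorted, with low and high (top ~1%) gates set on anti-HA fluorescence for expression and streptavidin fluorescence for reagent binding. Each polyreactivity label reflects the gate a clone came from. Genes were amplified by colony PCR, sequenced by MiSeq 2 × 250 and filtered by CDR length.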", "values": [{"sequence": "QVQLVESGGGLVQAGGSLRLSCAASGSIFKLYALGWYRPAPGKERELVAAISLSDGGTYYADSVKGRFTISRDNPKNTVYLQMNSLKPEDTAVYYCNKYYWYPYGRAHDYGYWGQGTQVTVSS", "polyreactivity (PSR sort gate)": "high polyreactivity"}, {"sequence": "QVQLVESGGGLVQAGGSLRLSCAASGSIFDSNTMGWYRQAPRKERELVAAITGTGTSTYYADSVKGRFTISRDNAKNTVYLQMNSLKPEDTAVYYCAADLEYKTWWYDYWGQGTQVTVSS", "polyreactivity (PSR sort gate)": "low polyreactivity"}, {"sequence": "QVQLVESGGGIVQAGGSLRLSCAASGRIFAYYAMGWYRQAPGKERELVAAISSSGGGTYYAYSVKGRFTISRDNAKNTVYLQMTSLKPEDTSVYYCAKRVPRKSSVSHPYDYWGQGTQVTVSS", "polyreactivity (PSR sort gate)": "high polyreactivity"}, {"sequence": "QVQLVESGGGLVQAGGSLRLSCAASGSIFDSYTMGWYRQAPGKERELVATINRSGGSTYYADSVKGRFTISRDNAKNTVYLQMNSLKPEDTAVYYCANVYPYTPYSSWRSKYDYWGQGTQVTVSS", "polyreactivity (PSR sort gate)": "low polyreactivity"}, {"sequence": "QDQLVESVGGLVQAGGSLRLSCAASGITFYYSAMGWDRQAPGKERELVAAISFRGGSTYYADSVKGRFTSSRDNAKNTVYLQMNSLKPEDTAVYYCAAETSPSWYTWVTYDYWGQGTQVTVSS", "polyreactivity (PSR sort gate)": "high polyreactivity"}, {"sequence": "QVQLVESGGGLVQAGGSLRLSCAASGRTFTEYAMGWYRQAPGKERELVAGIDSGSGSTYYADSVKGRFTISRDNAKNTVYLQMNSLKPEDTAVYYCAADHAYYRYDYWGQGTQVTVSS", "polyreactivity (PSR sort gate)": "low polyreactivity"}, {"sequence": "QVQLVQTGGGLVQAGGSLRLSCAASGRTFRYYAMGLYRQAPGKEREFVATITYSSGSTYYADSVKGRFTISRDNAKNTVYLQMNSLKPEDTAVYYCNAEGYCNSYGYWGQGTQVTVSS", "polyreactivity (PSR sort gate)": "low polyreactivity"}, {"sequence": "QVQLVESGGGLVQAGGSLRLSCAASGYTFSNNAMGWYRQAPGKERELFPTINSGGSTNYADSVKGRFTISRDNAKNTVYLQMNSLKPEDTAVYYCAAREDLYLYYNGQRVQYDYWGQGTQVTVSS", "polyreactivity (PSR sort gate)": "low polyreactivity"}, {"sequence": "QVQLVESGGGLVQAGGSLRLSCAASGRIFASNAMGWYRPAPGKERELVAAITTTGGSTYYADSVKGRFTISRDNAKNTVYLQMNSLKPEDTAVYYCAKRLGYRYPTYDYWGQGTQVTVSS", "polyreactivity (PSR sort gate)": "high polyreactivity"}, {"sequence": "QVQLEESGGGLVQAGGSLRLSCAASGRIFVFYDMGWYRQAPGKERELVATITRSGGRTYYADSVKGRFTISRDNAKNTVYLQMNSLKPEDTAVYYCAARRYGKYDYWGQGTQVTVSS", "polyreactivity (PSR sort gate)": "low polyreactivity"}, {"sequence": "QVQLVESGGGLVQAGGSLRLSCAASGSIFKRYTMGWYRQAPGKERELVASIRSRAGNTYYADSVKGRFTISRDNAKNTVYLQMNSLKPEDTAVYYCAVSAWGYYRTSYGYWGQGTQVTVSS", "polyreactivity (PSR sort gate)": "high polyreactivity"}, {"sequence": "QVQLVESGGGLVQAGGSLRLSCAASGFTFSSYAMGWYRQAPGKERELVAAISGSGDRTRYADSVKGRFTISRDNAKNTVYLQMNSLKPEDTAVYYCAAKSPGSQTAMDYWGQGTQVTVSS", "polyreactivity (PSR sort gate)": "high polyreactivity"}, {"sequence": "QVQLVESGGGLVQAGGSLRLSCAASGITFMFYAMGWSRQAPGKVRELVAAISSSGGTTYYADSVKGRFTISRDNAKNTVYLQMNSLTPEDTAVYYCAARRVLASWYDYNYWGQGTQVTVSS", "polyreactivity (PSR sort gate)": "high polyreactivity"}, {"sequence": "QVQLVESGGGLVQAGGSLRLSCAASGSTFHSYAIGWYRQAPGKEREFVAAITIRGGSTYYADSVKGRITISRDNAKNTVYLQMNSLKPEDNAVYYCAALVWGSYARWRYYCGQGTQVTVSS", "polyreactivity (PSR sort gate)": "high polyreactivity"}, {"sequence": "QVQLVESGGGLVQAGGSLRLSCAASGSTFRGYAMGCYRQAPGKEREFVASISLSGGTDYADSVKGRFTISRDNAKNTVYLQMNSLKPEDTADYYCAAGYPAVSDSIEHNFWGQGTQVTVSS", "polyreactivity (PSR sort gate)": "low polyreactivity"}, {"sequence": "QVQLVESGGGLVQAGGSLRLSCAASGFTFEVNAMGWYRQAPGKERELVAAINRGGSTYYADSVKGRFTISRDNAKNTVYFQMNSLKPEDTAVYYCNRDYEYPTYPHDYWGQGTQVTVSS", "polyreactivity (PSR sort gate)": "low polyreactivity"}, {"sequence": "QVQLVESGGGLVQAGGSLRLSCAASGIIFPYNAMGWYRQAPGKERELVAAITGGGSTYYADSVKGRFTISRDNAKNTVYLQMNSLKPEDTAVYYCAADRSGPGYDYWGQGTQVTVSS", "polyreactivity (PSR sort gate)": "low polyreactivity"}, {"sequence": "QVQLVESGGGLVQAGGSLRLTCAASGYTFYPYAMGWYRQAPGKERELVAAISWSGGSTYYADSVKGRFTISRDNAKNTVYLQMNSLKPEDTAVYYCNADSGWFGYDYWGKGTQVTVSS", "polyreactivity (PSR sort gate)": "low polyreactivity"}, {"sequence": "QVQLVESGGGLVQAGGSLRLSCAASGRIFYPYSMGWYRQAPGKERELVATITYIGGSTYADSVKGRFTISRDNAKNTVYLQMNSLKPEDTAVYYCAASETYFRFPFGIYYYWGQGTQVTVSS", "polyreactivity (PSR sort gate)": "low polyreactivity"}, {"sequence": "QVQLHESGGGLVQAGGSLRLSCAASGTISYAGPIGWYRQAPGKEREFVAGIGVCSNTNYADSVKGRYTIIRDNAKNTVYLQMNSLKPEDTAVYYCAAETDSWVGGYSYASLDYWGQGTQVTVSS", "polyreactivity (PSR sort gate)": "low polyreactivity"}, {"sequence": "QVQLVESGGGLVQAGGSLRLSCAASGRIFYKYAMGWYRQAPGKERELVAAITTSGGSTYYADSVKGRFTISRDNAKNTVYLQMNSLKPEDTAVYYCARDLNGRFLTTGRGMDYWGQGTQVTVSS", "polyreactivity (PSR sort gate)": "high polyreactivity"}, {"sequence": "QGQHVESGGGLVHAGGSLRLSCAASGSIFPYYAMGWYRQRPGKERELVAAITDCGSTNYADSVKGRFTISRDNAKNTVYLQMNSLKPEDTAVYYCNKLAGYYDYDYWGQCTQVTVSS", "polyreactivity (PSR sort gate)": "low polyreactivity"}, {"sequence": "QVQLGESGGGLVQAGGSLRLSCAASGSIIQQYAIGWYRQAPGKERELVAAISWGDGSTYYADSVKGRFTISRDNAKNTVYLQKNSLKPEDTAVYYCNAYASAPLWSLEDDYWGQGTQVTVSS", "polyreactivity (PSR sort gate)": "low polyreactivity"}, {"sequence": "QVQLVESGGGLVQAGGSLRLTCAASGYIIDWNTMVCYRHEPGKERELVAAITESSGSTYYADSVKGRFTISRDNAKNTVYLQMNSLKPEDTAVYYCAAELDVFVSICSRFHFEYWGQGTQVTVSS", "polyreactivity (PSR sort gate)": "low polyreactivity"}, {"sequence": "QVQLVESGGGLVQAGGSLRLSCAASGRTSYGYAMGWYRQAPGKERDLFAAITYGGGSTYYADTVKGRFTISRDNANNTVYLQMNSLIPEDTALYYCAADRTGSTLYTISYYYWGQGTQVTVSS", "polyreactivity (PSR sort gate)": "low polyreactivity"}, {"sequence": "QVQLVESGGGLVQAGGSLRLSCAASGSTISPNAMGWYRQAPGKERELVPAITWSGGSNTYADSVKGRFTISRDNAKNTVYLQMNSLKPEDTAVYYCATVGYLYTPVVVTWWDWGDYWGQGTQVTVSS", "polyreactivity (PSR sort gate)": "low polyreactivity"}, {"sequence": "QVQLVESGGGLVQAGGSLRLSCAASGRTSDGYAMGWYRQAPGKERELVAGITEGGGDTYYADSVKGRFTISRDNAKNTVYLQMNSLKPEDSAVYYCNAVEGSRLPYDYWGQGTQVTVSS", "polyreactivity (PSR sort gate)": "low polyreactivity"}, {"sequence": "QVQLVDSGGGLVQGGGSLRLSCAASGRTFGIYPMRWYRPAPGKERELVAAISRRGTSTYYADTVKGRFTISRDNAKNTVYLQLNSLKPEDTAVYYCATVGATVDNRDDYWGQGTQVTVSS", "polyreactivity (PSR sort gate)": "high polyreactivity"}, {"sequence": "QVQLVESGGGLVQAGGSLRLSCAASGSTFESYAMGWYRQAPGKERELVAAISRRGGRTYYADSVKGRFTISRDNAKNTVYLQMYSLKPEDTAVYYCATDSSYYGSDDYWGQGTQVNVSS", "polyreactivity (PSR sort gate)": "high polyreactivity"}, {"sequence": "EVQLVESGGGLVQAGGSLRLSCAASGFFYPNNAMGWYRQAPGKERELVARISYGGGDTHYADSVKGRFTISRDNAKNTVYLQMNSLKPEDTAVYYCAVKDGQDDYWGQGTQVTVSS", "polyreactivity (PSR sort gate)": "low polyreactivity"}, {"sequence": "QVQLVESGGGLVKAGGSLRLICAAYGRIFALYAMGWYRHAPGKERELVAAINNGASTNYADSVKWRFTISRDNAKNTVYVQMNSLKPEDTAVYYCAVRAARSGQRFYSWGQGTQVTVSS", "polyreactivity (PSR sort gate)": "high polyreactivity"}, {"sequence": "QVQLVESGGGLVQAGGSLRLSCAASGSIFDAYAMGWYRPATGKERELVAAITYSGGSTYYADSVKGRFTISRDNAKNTVYLQMNSLKPEDTAVYYCNTDSRVRTWFRAFTYDSWGQGTQVTVSS", "polyreactivity (PSR sort gate)": "low polyreactivity"}, {"sequence": "QVQLVESGGGLFQAGGSLRLSCAASGGIFPFYAMGWYRQAPGKERELVAAISSGGSTNYADSVKGRFTISRDNAKNTVYLQMNSLKPEDTAVYYWNTVFQLGEGGSYGYDYWGQGTQVTVSS", "polyreactivity (PSR sort gate)": "low polyreactivity"}, {"sequence": "QVHLVESGVGLVQAGGSLRLSCAASGRIFFANPIGWYRQAPGKERELVAANSRGGRTNYADSVKGRFTISRDNAKNTVYLQMNSLNPEDTAVYYCAAVRLSHAPSYYLYGMDYWGQGTQVTVSS", "polyreactivity (PSR sort gate)": "low polyreactivity"}, {"sequence": "QVQLVESGGGLVQAGGSLRLSCAASGSTLVPNAMGWYRQAPGKERELVATISFSSGRTYYADSVKGRFTISRDNAKNTVYLQMNSLKPEDTAVYYCNARSFGPTESRYDYWGQGTQVTVSS", "polyreactivity (PSR sort gate)": "high polyreactivity"}, {"sequence": "QVQLVESGGGLVQAGGSLRLSSAASGSTFTGYTMGWYRQATGKERELVASIRTYYADSVKGRFTISRDNAKNTVYLQMNSLKPEDTAVYYCAADFPSATGGYDYWGQGTQVTVSS", "polyreactivity (PSR sort gate)": "low polyreactivity"}, {"sequence": "QVQLVESGGGLVQAGGSLRVSCAASGSIFIGYAMGWSRQAPGKERELVAAINDSGDRTYYADSVKGRFTISRDNAKNTVYLQMNSLKPEDTAVYYCAADLVSLDPEYDYWGQGTQVTVSS", "polyreactivity (PSR sort gate)": "low polyreactivity"}, {"sequence": "QVQLVESGGCLVQAGGSLRLSCAASGSIFVWNVMGWYRKAPGKERELVAAISWRGGTTYYADSVKGRFTISRDNAKNTVYLQMNSLKPEDTAVYYCAKQKHWSVHGGYNYWGQGTQVTVSS", "polyreactivity (PSR sort gate)": "high polyreactivity"}, {"sequence": "QVQLVESGGGLVQAGGSLRLSCAASGYTFPIYAMGWYRQAPGKERELVATISSGGRTNYADSVKGRFTISRDNAKNTVYLQMKSLKPEDTAVSYCNARRLGWHALYLYDYWGQGTQVTVSS", "polyreactivity (PSR sort gate)": "high polyreactivity"}, {"sequence": "QVQLVESGGGLVQAGGSLRLSCAASGFIFGVYAMGWYRQAPGKERELVAAISGSGGTTYYADSVKGRFTISRDNAKNTVYLQMISLKPEDTAVYYCNAAYRVRYIVNYDYWGQGTQVTVSS", "polyreactivity (PSR sort gate)": "low polyreactivity"}, {"sequence": "QVQLVESGGGLVQAGGSLRLSCAASGSILFYNTMGWYRQAPGKERELVASITSGGSTKYADSVKGRFTISRDNAKNTVYLQMNSLKPEDTAVYYCNADRRFYSIYRWHHYYWGQGTQVTVSS", "polyreactivity (PSR sort gate)": "low polyreactivity"}]}]}
